18 sequences from the DeepSol protein solubility set can be followed below.

The series in a line: soluble on expression in E. coli; label from the status in PepcDB or PDB records.
For “MGSDKIHHHHHHMYANASSENGAVNVSDDGPPLRIIHCFRSPVGGVFRHVRDLIEEHVRQGHKVGIVCDSSTGGAHEERLFAQITPMLELGLTRLPIRRSISPGDLLALWKSYKHIKSLRPDILHGHSAKGGALARLIGSLLRANRYRVARLYSPHGGSLHYARNSLKGQLFLRLERFQEHFTDALCFVCNFEQETYETKVGKPRTRTAMIYNGVQESEFETVPPRDGAARFLYIGMLRDLKGPDVFIRAFAKMERSIGQPMSGVIVGDGPDRDKYAAMIATAGLSRRISMHAAMPARQAFELATTVVVPSRAEAMPYIVLEALAAGKTVIASHVGGIPEVLGEDSEALVPAGDADALARTMVKDAADADWAQRVMPHPDSFKAKFSTPVMADEMMKLYRDLLTT”, the “soluble on expression in E. coli” value is listed as “not soluble”.

Take “MGSDKIHHHHHHINVYFRGPRTHRMPQWVRVVFLQFLPKLVCMKRPKSASERSAVRSGMAQLPGVGQFTLSPSAHHPLCPSADDRTTTIRNTASNETSAYYPLSTDALRAIDAIEYITEHLKRDEQHKSFRDDWKYVAMIIDRL”: the “soluble on expression in E. coli” value is recorded as “not soluble”.

As to “MGSDKIHHHHHHMRGIVCVHKFCSRFSRTAYFTYGWMMNIELISLLKGNMGLTLTSELAADICVAAYRMETLAQSRDIAQIKPRYNGRIVFAVERIEDITEEIKHLHRTHWNETEGHRHRLPFQPDYETFIRYEQAGRYLLFTVRSEGKLLGNCAMYLDKSAHTQTLIATEDTLYLLPEARRGTTAKRFVRYVENAMKLLGVREINITVKTVNKAARFFRLLGYRHVENGLTKILEIENV”, the “soluble on expression in E. coli” value is listed as “not soluble”.

As for “PMSEKQLAEVVERTVTPLMKAQAIPGMAVAVIYEGQPHYFTFGKADVAANKPVTPQTLFELGSISKTFTGVLGGDAIARGEISLGDPVTKYWPELTGKQWQGIRMLDLATYTAGGLPLQVPDEVKDNASLLRFYQNWQPQWKPGTTRLYANASIGLFGALAVKPSGMSYEQAITTRVFKPLKLDHTWINVPKAEEAHYAWGYRDGKAVHVSPGMLDAEAYGVKTNVQDMASWVMVNMKPDSLQDNSLRKGLTLAQSRYWRVGAMYQGLGWEMLNWPVDAKTVVEGSDNKVALAPLPAREVNPPAPPVNASWVHKTGSTGGFGSYVAFIPEKQLGIVMLANKSYPNPARVEAAYRILSAL”, the “soluble on expression in E. coli” value is “soluble”.

As for “TGFNYFQYNITNSLNASYGPSQEGNQTDFYAGAVQLQQTVVQLDVDRGLEVGLASPLNVAAGALFRADNYQLKAGEEASWAGFENPPWGINQNGGTPAPGAQVFPGFRPEQEVDETRTNIGTYVDLQADLIDPLQVNIAGRFENYSDFGSTVNGKVALRFEPVSQLAFRGTAQTGYRAPNQAQKFFSKVSTTFIDNQPVQTGIFRINSDVGNALGIPDLE”, the “soluble on expression in E. coli” value is given as “not soluble”.

Turning to “MQTGNGEYHMGNTMTKAIYEKFKSATPYGNTVATGAIPTETVDIAVNVGGFKVGDQNYPINPKVTFTNNTGQDIPGGTEFQFDIPVSAPDNAKDQSGGGLQVIASGHTRPNNIGGLDGTMHRVAFTLPAWKALPAGGVYELDMVYYLPISGPANYTVNINNVDYAFKFEQPDLPLADLSSLEHHHHHH”, the “soluble on expression in E. coli” value is given as “soluble”.

Take “MAHHHHHHMPAAVPVRTPPYLVDVAANLTDCVFRGVDWKSNRLHDDDFDYVLARAQERNVQQIIITGTSLAQSVKAIALCRRYPDRRLLCTVGVHPAHCGEFLRPLDRDEVQRVAESASSVVMPHHEKSAAAMTAEREEAWAQERLDYLVDLATRNRDVVVAMGEIGIDYAEVACCPREVQEKYFARQLTAFAPLQLPFLFHSRACGMMFVSHLQDTWTRIASDAAATEAVADNAGASSPSPHAQLRGVVHSFNGTLEEQEALLSMGLYLSLNSSAFREASLAAQVALIPLGRLMFETDAPWCDVRSKDYGAQFVRTVFKTIKRKKPFEMGACLERRNEPCHLVQVMEEYLGCAKASATSPEDPLSRMDEATLVAAVYENCKRLFQL”: the “soluble on expression in E. coli” value is given as “not soluble”.

Regarding “MMIDDSKVSFVIPTINEEGTIGSVIDGIRSEFPNSEIIVVDTNSTDRTREIARSKGARVIEEPRRGYGRAYQTGIPAASGEIIVCMDGDGTYPTDVVKPLIELLIADRVDFISCDRITFRTSKNYTTLHYVGNMVLNLTIRILFKVRMVDSQSGMWVFRSEIYRKMKNLGNGMSFSQNIKIEAVRHGVFMEIPIRYGVRITKPKLKTWHDGFHNLFALFVKRVSELEHHHHHH”, the “soluble on expression in E. coli” value was “soluble”.

For the sequence “SNAMEVMLMSKYATLKYADKNIEIELPVYSPSLGNDCIDVSSLVKHGIFTYDPGFMSTAACESKITYIDGGKGVLLHRGYPIEEWTQKSNYRTLCYALIYGELPTDEQVKSFRQEIINKMPVCEHVKAAIAAMPQHTHPMSSLIAGVNVLAAEHIHNGQKESQDEVAKNIVAKIATIAAMAYRHNHGKKFLEPKMEYGYAENFLYMMFADDESYKPDELHIKAMDTIFMLHADHEQNASTSTVRLSGSTGNSPYAAIIAGITALWGPAHGGANEAVLKMLSEIGSTENIDKYIAKAKDKDDPFRLMGFGHRVYKNTDPRATAMKKNCEEILAKLGHSDNPLLTVAKKLEEIALQDEFFIERKLFSNVDFYSGIILKAMGIPEDMFTAIFALARTSGWISQWIEMVNDPAQKIGRPRQLYTGATNRNF”, the “soluble on expression in E. coli” value is given as “soluble”.

As to “MSLTRDAASITPARVRAHVFRYPVSTPVKTSFGTMHDRPAVLVEVEDSDGAVGWGEVWCNFPACGAEHRARLVETVLAPLLTARAFADPAQAFAHLEARTAVLAIQTGEPGPLAQAIAGLDIALCDLAARRAGQPLWAWLGGSGDRIGVYASGINPENPEDVVARKAAEGYRAFKLKVGFDDARDVRNALHVRELLGAATPLMADANQGWDLPRARQMAQRLGPAQLDWLEEPLRADRPAAEWAELAQAAPMPLAGGENIAGVAAFETALAARSLRVMQPDLAKWGGFSGCLPVARAVVAAGLRYCPHYLGAGIGLQASAHLLAAVPGLASPGLLEVDANDNPLRSLLSPALATLHEGRITLGGAPGLGVTPDLAALRAACAAREGHHHHHH”, the “soluble on expression in E. coli” value is “soluble”.

In the case of “MGSDKIHHHHHHMGLFDFLKKGLQKTKETFFGRVVKLLKGKKLDDETREELEELLIQADVGVETTEYILERLEEKDGDALESLKEIILEILNFDTKLNVPPEPPFVIMVVGVNGTGKTTSCGKLAKMFVDEGKSVVLAAADTFRAAAIEQLKIWGERVGATVISHSEGADPAAVAFDAVAHALARNKDVVIIDTAGRLHTKKNLMEELRKVHRVVKKKIPDAPHETLLVIDATTGQNGLVQAKIFKEAVNVTGIILTKLDGTAKGGITLAIARELGIPIKFIGVGEKAEDLRPFDPEAFVEVLLSE”, the “soluble on expression in E. coli” value is given as “soluble”.

In the case of “MQSIKGNHLVKVYDYQEDGSVLLTCDAEAKNITWFKDGKMIGFLTEDKKKWNLGSNAKDPRGMYQCKGSQNKSKPLQVYYRMGSADDAKKDAAKKDDAKKDDAKKDGSDGNEEMGGITQTPYKVSISGTTVILTCPQYPGSEILWQHNDKNIGGDEDDKNIGSDEDHLSLKEFSELEQSGYYVCYPRGSKPEDANFYLYLRARV”, the “soluble on expression in E. coli” value was “soluble”.

Take “MGSDKIHHHHHHMQDLNDLYYFVQVVKHGGFAPAGRALGIPKSKLSRRITQLEERLDTRLIHRSTRRFSVTELGQAYYRHSVAMLVEAEAAEELIQRHHAEPQGTVRLSCSPSVLHYLITPLLVRFMARCPKVEVQVEATSRRVDVIKEGFDLAIRVRFPPLEDSDLTMKVLASSPQRLMAAPSLFAERPRPRSPADLVELPSLDFEQYDHRHCWDLVGPNGASAQVPHWPRLVTDSAETLHAAALEGLGVVKLGLLVGARDIQEGRLIDVLPGWEPRGGILHAAFPSRRGLLPAVRALLDFLDEQIADEDFDTQEALINSSPRG”: the “soluble on expression in E. coli” value is “not soluble”.

For “MAAVSEFRLLQLPERAQRISLSHMSYNSIFSLSLCSTKKNKRPQGVPIRTLTYEGIEITSDRINRKHPVSDTFLSKAGFLDFYNCTYKSSQFIHKFLIHNTTTVFTRGVPRYNLNDLLVSNGQKIYVQVGRGIIFLEKDVNKFLKHWIRGSNRELKSLAFRAPMNMEIEHAIETILKGICYKDAREEDAASIKLVHICNGNTFKHPIIKISGFRIKRFDGTNATVVIRLLNANSVCFTSYVLHFLHNTSIMAAVSPFRLLQLPQRAQRISLSHMSSVSVFSLSLCATKNTKDLVRSLNLKCIRLCLEFFDDLILSICFEGCIIDFYLYMLNSSQKITPGLCAPKNVQVSTNDVKNFKWERPNLKFRNWIDHFLYILNISTLDVAMGKGVRVKKLSYHILDMTSNETNRTNSVNDTFLSKAEFIVLSNCTYETSQSIHKFLICNNATLFSNVFSPYNLNDLLISNCQNLLVNVDRGNIFLGQDVNKFLKHWIRGSNVTLKCLALEAPMNMERELVIETILEGIDYKVKEEEVSVYKKMLDIFNHGNPSITKIRGFRITRFDGTNCDVVIRTCNPSVMRYSLNMFIF”, the “soluble on expression in E. coli” value is reported as “not soluble”.

In the case of “MKKLIIATVLASISLSASAAETIRFAAEATYPPFEFIDANNKMQGFDIDLANALCKEMQADCTFTNQAFDSLIPSLKFKRFDAVISGMDITPERQKQVAFTQPYYDNSALFIAQKDKVADLAALKGKRVGMQNGSTHQKYLMEKHPEITAVPYDSYQNAILDLKNGRLDAVFGDTAVVNEWLKQNDQLAAVGDKVTDADYFGTGLGIAVRQSNTELQGKLDAALTKVKADGTYQTIYKKWFQQ”, the “soluble on expression in E. coli” value is “not soluble”.

With “MSLALIVQKFGGSSVGSVERIQAVAQRVYKTVKAGNSLVVVVSAMGKTTDGLVKLANEISRNPNRREMDMLLSTGEQVTIALLSMALQELGQPAISMTGAQVGIVTEAEHTRARILHIETERVEGHIKEGKVVVVAGFQGISSNGSLEITTLGRGGSDTSAVALAAALQADFCEIYTDVPGILTTDPRIVPEAQLMGEITCNEMLELASLGAKVLHPRAVEIARNYGMPLVVKSSWTDDPGTWVTTPKPQGRSLINLELARPVDDVELDTDQAKVALLRVPDKPGVAAKLFGEISRQKVDVDLIIQSIHEGNSNDIAFTVTTPILKRAEAVAAAIAPSLRSPSHPKSDEAEVMVEQNIAKVSIAGAGMIGRPGVAAQMFATLAEAGVNIQMISTSEVKVSCVIDAQDGDRAIIALRKAFEIETPLHSQLPTPSSLSTHNSPPVRGVALDLNQARLAIRQVPDRPGMAAQLFGILSQHNISVDMIIQSQRCRIVDGVPRRDIAFTVPRMDGETAQKLLCQVAPELGWGDVVLDSAIAKVSIVGAGMVGQPGVAAKMFEALAKHQINIQMIATSEIKISCVVSQEQGVQALQVIHTAFELAGTEKFVVPAEGHHHHHH”, the “soluble on expression in E. coli” value is reported as “not soluble”.

With “TGMSREEVESLIQEVLEVYPEKARKDRNKHLAVNDPAVTQSKKCIISNKKSQPGLMTIRGCAYAGSKGIVWGPIKDMIHISHGPVGCGQYSRAGRRNYYIGTTGVNAFVTMNFTSDFQEKDIVFGGDKKLAKLIDEVETLFPLNKGISVQSECPIGLIGDDIESVSKVKGAELSKTIVPVRCEGFRGVSQSLGHHIANDAVRDWVLGKRDEDTTFASTPYDVAIIGDYNIGGDAWSSRILLEEMGLRCVAQWSGDGSISEIELTPKVKLNLVHCYRSMNYISRHMEEKYGIPWMEYNFFGPTKTIESLRAIAAKFDESIQKKCEEVIAKYKPEWEAVVAKYRPRLEGKRVMLYIGGLRPRHVIGAYEDLGMEVVGTGYEFAHNDDYDRTMKEMGDSTLLYDDVTGYEFEEFVKRIKPDLIGSGIKEKFIFQKMGIPFREMHSWDYSGPYHGFDGFAIFARDMDMTLNNPCWKKLQAPWEASEGAEKVAASA”, the “soluble on expression in E. coli” value is listed as “soluble”.

“MGSDKIHHHHHHMPHDDHITALCFNNAESYEKPILVTASRDGHFKVWILTDDSDIYKKAIAWTCDFVGSYHKYQATNCCFSEDGSLLAVSFEEIVTIWDSQTWELKCTFCQRAGKIRHLCFGRLTCSKYLLGTTDNGILCCWNLLSCSIQWSAKLNVRVMEPDPYSDHVAAVAQSSAGSDLFVFKPSEPRPLYIQKNVSREEVQWGVFVPRDVPESFTSETHQWLNRSQFYFLTKSQSLLTFSTKSPEEKLTPTSKQLLAEESLPTTPFSFILGKHRQQQGAKLTETSENELVQLPLTENIPAITELLHTPAHVLPSASFLCSLFVNSLLLSKETKSAEEVPDDVDMEGNKESDDSDEEYDLTEKDKETNNTDLGEDAIHQLSKSEEKELRKFRKVDYSWLTAL”: the “soluble on expression in E. coli” value is given as “not soluble”.
